In paper PMC6882493 (Emerging Microbes & Infections, 2019):
Read-outs that look alike come from different tables or passages of the source.

Tests used:
[1] = test system: C[C@@H](O)[C@H]1C(=O)N2C(C(=O)O)=C(SCCN=CN)C[C@H]12; experiment: purified protein; conditions: 50 mM MES pH 7.0, 30 °C, 100 μM ZnCl2, 100 μg/ml BSA
[2] = test system: C[C@@H](O)[C@H]1C(=O)N2C(C(=O)O)=C(S[C@@H]3CN[C@H](C(=O)Nc4cccc(C(=O)O)c4)C3)[C@H](C)[C@H]12; experiment: purified protein; conditions: 50 mM MES pH 7.0, 30 °C, 100 μM ZnCl2, 100 μg/ml BSA
[3] = test system: C[C@@H](O)[C@H]1C(=O)N2C(C(=O)O)=C(S[C@@H]3CN[C@H](C(=O)N(C)C)C3)[C@H](C)[C@H]12; experiment: purified protein; conditions: 50 mM MES pH 7.0, 30 °C, 100 μM ZnCl2, 100 μg/ml BSA
PNGM-1 [4] = conditions: read-out: PNGM-1^a; 50 mM MES pH 7.0, 30 °C, 100 μM ZnCl2, 100 μg/ml BSA; footnote: identical to data from authors' earlier reference 13; cited from earlier work
Target sequence in this assay (Z9H0G7B495 1-372 limits assumed): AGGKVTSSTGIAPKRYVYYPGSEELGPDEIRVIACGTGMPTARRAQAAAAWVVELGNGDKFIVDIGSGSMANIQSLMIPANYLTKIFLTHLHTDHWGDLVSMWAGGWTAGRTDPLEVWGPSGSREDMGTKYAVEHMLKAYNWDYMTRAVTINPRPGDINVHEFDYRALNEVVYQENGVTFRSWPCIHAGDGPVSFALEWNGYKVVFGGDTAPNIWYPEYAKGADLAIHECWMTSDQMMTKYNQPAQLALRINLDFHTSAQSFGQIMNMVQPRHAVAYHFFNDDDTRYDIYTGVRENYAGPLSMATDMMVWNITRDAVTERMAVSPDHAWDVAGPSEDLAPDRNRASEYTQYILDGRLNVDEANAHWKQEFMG

PNGM-1 [5] = conditions: read-out: PNGM-1^a; 50 mM MES pH 7.0, 30 °C, 100 μM ZnCl2, 100 μg/ml BSA; footnote: identical to data from authors' earlier reference 13; cited from earlier work; remark: listed apart in the source
Target sequence in this assay (Z9H0G7B495 1-372 limits assumed): as above

PNGM-1 [6] = test system: PNGM-1
Target sequence in this assay (Z9H0G7B495 1-372 H256A limits assumed): as the sequence (Z9H0G7B495 1-372 limits assumed) above, with H256A counted along it

PNGM-1 [7] = conditions: read-out: PNGM-1^a; 50 mM MES pH 7.0, 30 °C, 100 μM ZnCl2, 100 μg/ml BSA; footnote: identical to data from authors' earlier reference 13; cited from earlier work; remark: listed apart in the source
Target sequence in this assay (Z9H0G7B495 1-372 limits assumed): as the sequence (Z9H0G7B495 1-372 limits assumed) above

PNGM-1 [8] = test system: PNGM-1; remark: listed apart in the source
Target sequence in this assay (Z9H0G7B495 1-372 H256A limits assumed): as the sequence (Z9H0G7B495 1-372 limits assumed) above, with H256A counted along it

PNGM-1 [9] = conditions: read-out: PNGM-1^a; 50 mM MES pH 7.0, 30 °C, 100 μM ZnCl2, 100 μg/ml BSA; footnote: identical to data from authors' earlier reference 13; cited from earlier work; remark: listed apart in the source
Target sequence in this assay (Z9H0G7B495 1-372 limits assumed): as the sequence (Z9H0G7B495 1-372 limits assumed) above

PNGM-1 [10] = conditions: read-out: PNGM-1^a; 50 mM MES pH 7.0, 30 °C, 100 μM ZnCl2, 100 μg/ml BSA; footnote: identical to data from authors' earlier reference 13; cited from earlier work; remark: listed apart in the source
Target sequence in this assay (Z9H0G7B495 1-372 limits assumed): as above

PNGM-1 [11] = test system: PNGM-1; remark: listed apart in the source
Target sequence in this assay (Z9H0G7B495 1-372 H256A limits assumed): as the sequence (Z9H0G7B495 1-372 limits assumed) above, with H256A counted along it

PNGM-1 [12] = conditions: read-out: PNGM-1^a; 50 mM MES pH 7.0, 30 °C, 100 μM ZnCl2, 100 μg/ml BSA; footnote: identical to data from authors' earlier reference 13; cited from earlier work; remark: listed apart in the source
Target sequence in this assay (Z9H0G7B495 1-372 limits assumed): as the sequence (Z9H0G7B495 1-372 limits assumed) above

Row | Molecule | Km [1] | kcat [1] | kcat/Km [1] | Km [2] | kcat [2] | Km [3] | kcat [3] | other results
1 | FEZ-1 (Fluoribacter gormanii) | 3.5 ± 0.1 µM | 0.763 ± 0.001 s⁻¹ | 220000 ± 10000 M⁻¹ s⁻¹ | 4.6 ± 0.1 µM | 0.667 ± 0.001 s⁻¹ | 4.2 ± 0.1 µM | 0.773 ± 0.001 s⁻¹ | kcat/Km [3]: 180000 ± 10000 M⁻¹ s⁻¹
2 | C[C@@H](O)[C@H]1C(=O)N2C(C(=O)O)=C(SCCN=CN)C[C@H]12 [imipenem] | – | – | – | – | – | – | – | Km (PNGM-1 [4]): 2 ± 0.1 µM
3 | C[C@@H](O)[C@H]1C(=O)N2C(C(=O)O)=C(S[C@@H]3CN[C@H](C(=O)N(C)C)C3)[C@H](C)[C@H]12 [meropenem] | – | – | – | – | – | – | – | Km (PNGM-1 [5]): 1.9 ± 0.1 µM
4 | CO/N=C(\C(=O)N[C@@H]1C(=O)N2C(C(=O)O)=C(COC(C)=O)CS[C@H]12)c1csc(N)n1 [cefotaxime] | – | – | – | – | – | – | – | Km (PNGM-1 [6]): 3.1 ± 0.1 µM; Km (PNGM-1 [7]): 3.3 ± 0.1 µM
5 | AIM-1 (Pseudomonas aeruginosa) | 3.8 ± 0.1 µM | 11.128 ± 0.0001 s⁻¹ | 2.9e+06 ± 200000 M⁻¹ s⁻¹ | 5.0 ± 0.1 µM | 12.376 ± 0.0001 s⁻¹ | 4.6 ± 0.1 µM | 15.409 ± 0.0001 s⁻¹ | kcat/Km [2]: 2.5e+06 ± 200000 M⁻¹ s⁻¹
6 | GOB-18 (Elizabethkingia meningoseptica) | 4.8 ± 0.1 µM | 6.188 ± 0.003 s⁻¹ | 1.3e+06 ± 200000 M⁻¹ s⁻¹ | 6.3 ± 0.1 µM | 6.882 ± 0.002 s⁻¹ | 5.7 ± 0.1 µM | 8.568 ± 0.001 s⁻¹ | kcat/Km [2]: 1.1e+06 ± 200000 M⁻¹ s⁻¹; kcat/Km [3]: 1.5e+06 ± 100000 M⁻¹ s⁻¹
7 | CC(C)(O/N=C(\C(=O)N[C@@H]1C(=O)N2C(C(=O)[O-])=C(C[n+]3ccccc3)CS[C@H]12)c1csc(N)n1)C(=O)O [ceftazidime] | – | – | – | – | – | – | – | Km (PNGM-1 [8]): 15.4 ± 0.1 µM; Km (PNGM-1 [9]): 15.9 ± 0.2 µM
8 | C[C@@H](O)[C@H]1C(=O)N2C(C(=O)O)=C(S[C@@H]3CN[C@H](C(=O)Nc4cccc(C(=O)O)c4)C3)[C@H](C)[C@H]12 [ertapenem] | – | – | – | – | – | – | – | Km (PNGM-1 [10]): 1.9 ± 0.1 µM
9 | CO[C@@]1(NC(=O)Cc2cccs2)C(=O)N2C(C(=O)O)=C(COC(N)=O)CS[C@@H]21 [cefoxitin] | – | – | – | – | – | – | – | Km (PNGM-1 [11]): 3.8 ± 0.1 µM; Km (PNGM-1 [12]): 4.3 ± 0.1 µM
